Data on one molecule can be found in article PMC10421887 (Scientific Reports, 2023).

The experiment concerns the target T1, SARS-CoV-2 Nucleocapsid Protein with GST-tag, biotinylated (Severe acute respiratory syndrome …, UniProt P0DTC9).
T1 construct: also called NP; N-GST
In words: ELISA; […], room temperature; […]. The conditions noted are these: one partner purified. (In general: An ELISA detects its analyte on a solid surface through an enzyme-linked reagent.)

B1: Fab N1G1 (Fab, V domains shown)
VH: EVQLLESGGGLVQPGGSLRLSCAASGFTFSDYYMHVRQAPGKGLEWVSEINPSSGNTDYADSVKGRFTISRDNSKNTLYLQMNSLRAEDTAVYYCAREYEEHGYYLTDYYFDYWGQGTLVTVSS
VL: EIVLTQSPGTLSLSPGERATLSCRASQSVSSSALAWYQQKPGQAPRLLIYGASSRATGVPDRFSGSGSGTDFTLTISRLEPEDFAVYYCQQMHSTPWTFGQGTKVEIK
notes: also called positive control for anti-NP1 & 2 screening
B1: the binding result is listed as “binds”.
